# Test results: the Human Domainome abundance scans (Beltran et al. 2025)
# ± gives the uncertainty stated by the source.
# B1: RUN and FYVE domain-containing protein 1, residues 639 to 698; numbered along this chain, Q96T51 (parent)
# chain: WLKDDEATHCRQCEKEFSISRRKHHCRNCGHIFCNTCSSNELALPSYPKPVRVCDSCHTL
# Variants of: B1
# Test: abundance fitness (aPCA) (normalised: wild type 0, dead -1); higher = more abundant; growth selection in yeast, the domain comes from the species named
# Conditions: Homo sapiens
row,Variant,abundance fitness
1,WLKDDEATHCRQCEKEFSISRRKHHCRNCGHIFQNTCSSNELALPSYPKPVRVCDSCHTL [C34Q],-0.542 ± 0.074
2,WLKDDEATHCRQCEKEFSISRRKHHCRNCGLIFCNTCSSNELALPSYPKPVRVCDSCHTL [H31L],-0.012 ± 0.035
3,WLKDDEATHCRQCEKEFSISRRKHHCRNCGVIFCNTCSSNELALPSYPKPVRVCDSCHTL [H31V],-0.626 ± 0.054
4,WLKDDMATHCRQCEKEFSISRRKHHCRNCGHIFCNTCSSNELALPSYPKPVRVCDSCHTL [E6M],-0.316 ± 0.052
5,WLKDDEATHCRQCEKEFSISRRKHHCRNCGHIWCNTCSSNELALPSYPKPVRVCDSCHTL [F33W],-0.455 ± 0.058
6,WQKDDEATHCRQCEKEFSISRRKHHCRNCGHIFCNTCSSNELALPSYPKPVRVCDSCHTL [L2Q],-0.023 ± 0.076
7,WGKDDEATHCRQCEKEFSISRRKHHCRNCGHIFCNTCSSNELALPSYPKPVRVCDSCHTL [L2G],-0.074 ± 0.12
8,WLKDDEATHCRQCEKEFSISRRKHHCRNCGHIFCNTCSFNELALPSYPKPVRVCDSCHTL [S39F],-0.305 ± 0.11
9,WLKDDEATHKRQCEKEFSISRRKHHCRNCGHIFCNTCSSNELALPSYPKPVRVCDSCHTL [C10K],-0.766 ± 0.1
10,WLKDDEATHCRQCEKEFSISRRKHHCRNCGHIFCNTCSSNELALPSYPKPVRVCDACHTL [S56A],0.21 ± 0.032
11,WLKRDEATHCRQCEKEFSISRRKHHCRNCGHIFCNTCSSNELALPSYPKPVRVCDSCHTL [D4R],-0.22 ± 0.037
12,WLKDDEATHCRQCEKEFSISRRKHHCRNCGHIFCNTCSSNELALPPYPKPVRVCDSCHTL [S46P],0.069 ± 0.07
13,WLKDDEATHCRQCEKEFSISRRKHHCRNCGHIFCNTCSSNELALPMYPKPVRVCDSCHTL [S46M],0.086 ± 0.093
14,WLKDDEATHCRQCEKEFSISRRKHHCRNCGHIFCNTCSSNELALPAYPKPVRVCDSCHTL [S46A],0.16 ± 0.068
15,WLKDWEATHCRQCEKEFSISRRKHHCRNCGHIFCNTCSSNELALPSYPKPVRVCDSCHTL [D5W],-0.531 ± 0.055
16,WLKDQEATHCRQCEKEFSISRRKHHCRNCGHIFCNTCSSNELALPSYPKPVRVCDSCHTL [D5Q],-0.708 ± 0.069
17,WLKDDEATHCRQCEKEFSISRRKHHCRNCGHIFCNTCSSNELALPSYPKGVRVCDSCHTL [P50G],-0.118 ± 0.047
18,WLKDDEATHCRQCEKEFSISRRKHHCFNCGHIFCNTCSSNELALPSYPKPVRVCDSCHTL [R27F],0.176 ± 0.061
19,WLKDDEATHCRQCEKEFSISRRKHHCMNCGHIFCNTCSSNELALPSYPKPVRVCDSCHTL [R27M],0.019 ± 0.051
20,WLKDDEATHCRQCEKEFSISRRKHHCRNCGHIFCNTCSSNELALPSYPKPVRVCDSCHTF [L60F],-0.163 ± 0.07
21,WLKDDEATHCRQCEKEFSISRRKHKCRNCGHIFCNTCSSNELALPSYPKPVRVCDSCHTL [H25K],0.012 ± 0.058
22,WLKDDEATHCRQCEKEFSISRRKHHCRNCGHIFCNTCSSNELALCSYPKPVRVCDSCHTL [P45C],-0.325 ± 0.085
23,WLKDDEATHCRQCEKEFSISRRKHHCRNWGHIFCNTCSSNELALPSYPKPVRVCDSCHTL [C29W],-1.03 ± 0.097

row,Variant,abundance fitness
1,WLKDDEATHCRQCEEEFSISRRKHHCRNCGHIFCNTCSSNELALPSYPKPVRVCDSCHTL [K15E],-0.009 ± 0.049
2,WLKDDEATHCRQCEMEFSISRRKHHCRNCGHIFCNTCSSNELALPSYPKPVRVCDSCHTL [K15M],-0.373 ± 0.091
3,WLKDDEATHCRQCEWEFSISRRKHHCRNCGHIFCNTCSSNELALPSYPKPVRVCDSCHTL [K15W],-0.449 ± 0.049
4,WLKDDEATHCRQCEKEFSIVRRKHHCRNCGHIFCNTCSSNELALPSYPKPVRVCDSCHTL [S20V],-0.031 ± 0.033
5,WLKDDEATHCRQCEKEFSIHRRKHHCRNCGHIFCNTCSSNELALPSYPKPVRVCDSCHTL [S20H],-0.108 ± 0.096
6,WLGDDEATHCRQCEKEFSISRRKHHCRNCGHIFCNTCSSNELALPSYPKPVRVCDSCHTL [K3G],-0.515 ± 0.051
7,WLDDDEATHCRQCEKEFSISRRKHHCRNCGHIFCNTCSSNELALPSYPKPVRVCDSCHTL [K3D],-0.539 ± 0.097
8,WLSDDEATHCRQCEKEFSISRRKHHCRNCGHIFCNTCSSNELALPSYPKPVRVCDSCHTL [K3S],-0.55 ± 0.057
9,WLKDDEATHCHQCEKEFSISRRKHHCRNCGHIFCNTCSSNELALPSYPKPVRVCDSCHTL [R11H],0.044 ± 0.068
10,WLKDDEATHCAQCEKEFSISRRKHHCRNCGHIFCNTCSSNELALPSYPKPVRVCDSCHTL [R11A],0.227 ± 0.032
11,WLKDDEATHCRQCEKEFSISRRKHHCRNCGHIFCNTPSSNELALPSYPKPVRVCDSCHTL [C37P],-0.537 ± 0.068
12,WLKDDEATHCRQCEKEFSISRRKHHCRNCGHIFCNTYSSNELALPSYPKPVRVCDSCHTL [C37Y],-0.615 ± 0.16
13,WLKDDEATHCRQCEKEFSISRRKHHCRNCGHIFCNTCSSNELALPSKPKPVRVCDSCHTL [Y47K],-0.262 ± 0.074
14,WLKDDEATHCRQCEKEFSISRRKHHCRNCGHIFCNTCSSNELALPSGPKPVRVCDSCHTL [Y47G],-0.045 ± 0.036
15,WLKDDEATHCRQCEKEFSISRRKNHCRNCGHIFCNTCSSNELALPSYPKPVRVCDSCHTL [H24N],-0.256 ± 0.087
16,WLKDDEATHCRQCEKEFSISRRKHHCRNCGHIFCNTCSSNELALPSYPKPVRVCDSCHDL [T59D],0.062 ± 0.068
17,WLKDDEATHCRQCEKEFSISRRKHHCRNCGHIFCNTCSSNELALPSYPKPVRVCDSCHLL [T59L],-0.048 ± 0.04
18,WLKDDEATHCRQCEKEFSISRRKHHCRNCGHIFCNTCSSNELALPSYPKPVRVCDSCHPL [T59P],-0.281 ± 0.068
19,WLKDDEATHCRQCEKEFSISRRKHHWRNCGHIFCNTCSSNELALPSYPKPVRVCDSCHTL [C26W],-0.748 ± 0.11
20,WLKDDEATHCRQCEKEFSISRRKHHCRNCGHIFCNTCSSNELALPSYPKPVRVCDSEHTL [C57E],-0.711 ± 0.073
21,WLKDDEATHCRQCEKEFSISRRKHHCRNCGHIFCNTCSSNELALPSYPEPVRVCDSCHTL [K49E],-0.083 ± 0.053
22,WLKDDEATHCRQCEKEFSISRRKHHCRNCGHIFCNTCSSNELALPSYPRPVRVCDSCHTL [K49R],0.016 ± 0.035
